Biological target: human CD123 (human, UniProt P26951 19-378)
Assay: cell-based or functional assay

human CD123, sequence (P26951 19-378): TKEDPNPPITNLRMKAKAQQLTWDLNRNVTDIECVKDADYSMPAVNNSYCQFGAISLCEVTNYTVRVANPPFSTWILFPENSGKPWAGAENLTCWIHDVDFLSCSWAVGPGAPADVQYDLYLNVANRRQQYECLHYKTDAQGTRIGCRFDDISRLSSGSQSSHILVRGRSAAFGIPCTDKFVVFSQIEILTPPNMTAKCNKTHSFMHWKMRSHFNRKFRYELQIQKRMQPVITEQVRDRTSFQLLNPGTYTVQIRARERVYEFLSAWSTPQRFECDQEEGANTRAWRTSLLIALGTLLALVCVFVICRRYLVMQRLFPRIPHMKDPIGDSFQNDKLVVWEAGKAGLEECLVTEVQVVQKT

B1: CD123×CD3 bispecific antibody (bispecific antibody, human IgG4 S228P, kappa, lambda, F234A L235A)
heavy 1: not shown
light 1: EIVLTQSPGTLSLSPGERATLSCRASQSVSSSYLAWYQQKPGQAPRLLIYGASSRATGIPDRFSGSGSGTDFTLTISRLEPEDFAVYYCQQDYGFPWTFGQGTKVEIKRTVAAPSVFIFPPSDEQLKSGTASVVCLLNNFYPREAKVQWKVDNALQSGNSQESVTEQDSKDSTYSLSSTLTLSKADYEKHKVYACEVTHQGLSSPVTKSFNRGEC
heavy 2: EVQLVESGGGLVQPGGSLKLSCAASGFTFNTYAMNWVRQASGKGLEWVGRIRSKYNAYATYYAASVKGRFTISRDDSKNTAYLQMNSLKTEDTAVYYCTRHGNFGNSYVSWFAYWGQGTLVTVSSASTKGPSVFPLAPCSRSTSESTAALGCLVKDYFPEPVTVSWNSGALTSGVHTFPAVLQSSGLYSLSSVVTVPSSSLGTKTYTCNVDHKPSNTKVDKRVESKYGPPCPPCPAPEAAGGPSVFLFPPKPKDTLMISRTPEVTCVVVDVSQEDPEVQFNWYVDGVEVHNAKTKPREEQFNSTYRVVSVLTVLHQDWLNGKEYKCKVSNKGLPSSIEKTISKAKGQPREPQVYTLPPSQEEMTKNQVSLTCLVKGFYPSDIAVEWESNGQPENNYKTTPPVLDSDGSFLLYSKLTVDKSRWQEGNVFSCSVMHEALHNHYTQKSLSLSLGK
light 2: QAVVTQEPSLTVSPGGTVTLTCRSSTGAVTTSNYANWVQQKPGQAPRGLIGGTNKRAPGTPARFSGSLLGGKAALTLSGAQPEDEAEYYCALWYSNLWVFGGGTKLTVLGQPKAAPSVTLFPPSSEELQANKATLVCLISDFYPGAVTVAWKADSSPVKAGVETTTPSKQSNNKYAASSYLSLTPEQWKSHRSYSCQVTHEGSTVEKTVAPTECS
- EC50 of T cell-mediated cytotoxicity, target HL-60, HS-5 stroma, no anti-CD44, 48 h: 0.142 nM
- EC50 of T cell-mediated cytotoxicity, target HL-60, HS-5 stroma, with anti-CD44, 48 h: 0.0762 nM
- EC50 of T cell-mediated cytotoxicity, target HL-60, no stroma, no anti-CD44, 48 h: 0.0868 nM
- EC50 of T cell-mediated cytotoxicity, target HL-60, no stroma, with anti-CD44, 48 h: 0.0808 nM
- EC50 of T cell-mediated cytotoxicity, target KG-1, HS-5 stroma, no anti-CD44, 48 h: 0.0319 nM
- EC50 of T cell-mediated cytotoxicity, target KG-1, HS-5 stroma, with anti-CD44, 48 h: 0.0265 nM
- EC50 of T cell-mediated cytotoxicity, target KG-1, no stroma, no anti-CD44, 48 h: 0.0028 nM
- EC50 of T cell-mediated cytotoxicity, target KG-1, no stroma, with anti-CD44, 48 h: 0.0009 nM
- EC50 of T cell-mediated cytotoxicity, target MOLM-13, HS-5 stroma, no anti-CD44, 48 h: 0.0262 nM
- EC50 of T cell-mediated cytotoxicity, target MOLM-13, HS-5 stroma, with anti-CD44, 48 h: 0.153 nM
- EC50 of T cell-mediated cytotoxicity, target MOLM-13, no stroma, no anti-CD44, 48 h: 0.0362 nM
- EC50 of T cell-mediated cytotoxicity, target MOLM-13, no stroma, with anti-CD44, 48 h: 0.0125 nM
- EC50 of T cell-mediated cytotoxicity, target MV4-11, HS-5 stroma, no anti-CD44, 48 h: 0.0057 nM
- EC50 of T cell-mediated cytotoxicity, target MV4-11, HS-5 stroma, with anti-CD44, 48 h: 0.0025 nM
- EC50 of T cell-mediated cytotoxicity, target MV4-11, no stroma, no anti-CD44, 48 h: 0.0056 nM
- EC50 of T cell-mediated cytotoxicity, target MV4-11, no stroma, with anti-CD44, 48 h: 0.0026 nM
- EC50 of T cell-mediated cytotoxicity, target SKNO-1, HS-5 stroma, no anti-CD44, 48 h: 0.0757 nM
- EC50 of T cell-mediated cytotoxicity, target SKNO-1, HS-5 stroma, with anti-CD44, 48 h: 0.108 nM
- EC50 of T cell-mediated cytotoxicity, target SKNO-1, no stroma, no anti-CD44, 48 h: 0.0111 nM
- EC50 of T cell-mediated cytotoxicity, target SKNO-1, no stroma, with anti-CD44, 48 h: 0.0077 nM
